From patent publication US20210324028A1 (Pfizer, published 2021)

T1: human IL-2Rβ (human, UniProt P14784 27-240, limits assumed)
T1 construct: also called hIL-2Rβ; IL-2 receptor beta
T1 sequence (looked up): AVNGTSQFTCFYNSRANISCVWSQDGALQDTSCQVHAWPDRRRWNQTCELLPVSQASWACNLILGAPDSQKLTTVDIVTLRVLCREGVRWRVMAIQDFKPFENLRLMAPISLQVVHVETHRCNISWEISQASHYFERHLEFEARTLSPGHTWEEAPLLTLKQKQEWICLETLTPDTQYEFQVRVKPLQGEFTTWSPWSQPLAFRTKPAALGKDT


How the values were obtained:
human IL-2Rβ [1] = molecular target: T1, human IL-2Rβ; assay: SPR, kinetic fit
human IL-15Rα [2] = molecular target: T2, human IL-15Rα (human, UniProt Q13261 31-205, limits assumed); assay: SPR, steady state
T2 construct: also called hIL-15Rα; IL-15 receptor alpha
T2 sequence (Q13261 31-205 limits assumed): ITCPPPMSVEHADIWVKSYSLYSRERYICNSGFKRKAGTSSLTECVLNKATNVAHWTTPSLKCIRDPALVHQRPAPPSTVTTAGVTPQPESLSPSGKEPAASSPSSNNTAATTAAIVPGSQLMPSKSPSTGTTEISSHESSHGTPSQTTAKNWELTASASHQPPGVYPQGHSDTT

human IL-2Rβ [3] = molecular target: T1, human IL-2Rβ; assay: SPR, steady state, fusion captured
Description: (§1) Anti-human Fc sensor chips were prepared at 25° C. with a running buffer of 10 mM HEPES, 150 mM NaCl, 0.05% (v/v) Tween-20, pH 7.4. All surfaces of a Biacore CM4 sensor chip were activated with a 1:1 (v/v) mixture of 400 mM EDC and 100 mM NHS for 7 minutes, at a flow rate of 10 μL/min. An anti-human Fc reagent (Goat anti-human IgG Fc-γ specific, SouthernBiotech, Birmingham, Ala., Catalog #2014-01) was diluted to 50 μg/mL in 10 mM sodium acetate (pH 4.5) and injected on all flow cells for 7 minutes at 20 μL/min. All flow cells were blocked with 100 mM ethylenediamine in 200 mM Borate buffer pH 8.5 for 7 minutes at 10 μL/min.
(§2) All protein interaction experiments were performed at 37° C. using a running buffer of 10 mM HEPES, 150 mM NaCl, 0.05% (v/v) Tween-20, pH 7.4, 1 mg/mL BSA. Anti-PD-1-hIL-15 fusion proteins were captured at 10 μg/mL at a flow rate of 10 μL/min for 2 minutes. Different fusion proteins were captured in flow cells 2, 3 and 4. No protein was captured onto flow cell 1 which was used as a reference surface. […] After each analyte injection, dissociation was monitored for 5 minutes followed by regeneration of all flow cells with three 60-second injections of 75 mM phosphoric acid. […] For kinetic analysis, the double-referenced sensorgrams were fit globally to a simple 1:1 Langmuir with mass transport binding model using Biacore T200 Evaluation Software version 2.0. For steady-state affinity analysis, the double-referenced equilibrium binding responses were fit with a 1:1 Langmuir steady-state model using Biacore T200 Evaluation Software version 2.0.

human IL-15Rα [4] = molecular target: T2, human IL-15Rα; assay: SPR 37C, fusion captured by anti-human Fc
Description: as §1, §2

human IL-2Rβ [5] = molecular target: T1, human IL-2Rβ; assay: SPR, fusion captured
Description: as §1, §2

Binder	Kd (human IL-2Rβ [1])	binding result (human IL-15Rα [4])	further results
hIL-15 V49R/D30G (ligand) NWVNVISDLKKIEDLIQSMHIDATLYTESGVHPSCKVTAMKCFLLELQRISLESGDASIHDTVENLIILANNSLSSNGNVTESGCKECEELEEKNIKEFLQSFVHIVQMFINTGGGGSGHHHHHHHHGGGLNDIFEAQKIEWHE	513 nM	–	–
hIL-15 V49R/K11W (ligand) NWVNVISDLKWIEDLIQSMHIDATLYTESDVHPSCKVTAMKCFLLELQRISLESGDASIHDTVENLIILANNSLSSNGNVTESGCKECEELEEKNIKEFLQSFVHIVQMFINTGGGGSGHHHHHHHHGGGLNDIFEAQKIEWHE	346 nM	–	Kd (human IL-15Rα [2]): 361 nM
hIL-15 V49R/H32F (ligand) NWVNVISDLKKIEDLIQSMHIDATLYTESDVFPSCKVTAMKCFLLELQRISLESGDASIHDTVENLIILANNSLSSNGNVTESGCKECEELEEKNIKEFLQSFVHIVQMFINTGGGGSGHHHHHHHHGGGLNDIFEAQKIEWHE	315 nM	–	–
xmPD-1-hIL15Rasu-hIL15(E64Q/D30N N4K) (other, not restated for this mutant) heavy 1: HHHHHHHHGGGGSGSGGEVQLVESGGGLVKPGGSLELSCAASGFTFSSYWMSWVRQAPEKGLEWVAAISPSGGSTYYADSVKGRFTISRDNAKNTLFLQMTSLRSEDTAMYYCAKESWGAYYDLWGQGTTVTVSSASTKGPSVFPLAPCSRSTSESTAALGCLVKDYFPEPVTVSWNSGALTSGVHTFPAVLQSSGLYSLSSVVTVPSSNFGTQTYTCNVDHKPSNTKVDKTVERKCRVRCPRCPAPPVAGPSVFLFPPKPKDTLMISRTPEVTCVVVAVSHEDPEVQFNWYVDGVEVHNAKTKPREEQFNSTFRVVSVLTVVHQDWLNGKEYKCKVSNKGLPSSIEKTISKTKGQPREPQVYTLPPSREEMTKNQVSLTCLVKGFYPSDIAVEWESNGQPENNYKTTPPMLDSDGSFFLYSRLTVDKSRWQQGNVFSCSVMHEALHNHYTQKSLSLSPGK heavy 2: EVQLVESGGGLVKPGGSLELSCAASGFTFSSYWMSWVRQAPEKGLEWVAAISPSGGSTYYADSVKGRFTISRDNAKNTLFLQMTSLRSEDTAMYYCAKESWGAYYDLWGQGTTVTVSSASTKGPSVFPLAPCSRSTSESTAALGCLVKDYFPEPVTVSWNSGALTSGVHTFPAVLQSSGLYSLSSVVTVPSSNFGTQTYTCNVDHKPSNTKVDKTVERKCEVECPECPAPPVAGPSVFLFPPKPKDTLMISRTPEVTCVVVAVSHEDPEVQFNWYVDGVEVHNAKTKPREEQFNSTFRVVSVLTVVHQDWLNGKEYKCKVSNKGLPSSIEKTISKTKGQPREPQVYTLPPSREEMTKNQVSLTCEVKGFYPSDIAVEWESNGQPENNYKTTPPMLDSDGSFFLYSKLTVDKSRWQQGNVFSCSVMHEALHNHYTQKSLSLSPGSGGGGGTSATATPGAITCPPPMSVEHADIWVKSYSLYSRERYICNSGFKRKAGTSSLTECVLNKATNVAHWTTPSLKCIRDPALVHQRPAPPSGGSGGGGSGGGSGGGGSGGNWVKVISDLKKIEDLIQSMHIDATLYTESNVHPSCKVTAMKCFLLELQVISLESGDASIHDTVQNLIILANNSLSSNGNVTESGCKECEELEEKNIKEFLQSFVHIVQMFINT light: DIVMTQSPSSLSVSAGDKVTMSCRASQGISSWLAWYQQKPWQPPKLLIYKASTLESGVPDRFTGSGSGTDFTLTISSVQAEDLAVYYCQQSYSTPWTFGGGTKLEIKGTVAAPSVFIFPPSDEQLKSGTASVVCLLNNFYPREAKVQWKVDNALQSGNSQESVTEQDSKDSTYSLSSTLTLSKADYEKHKVYACEVTHQGLSSPVTKSFNRGEC	–	no binding (tested: 3000 nM)	Kd (human IL-2Rβ [3]): 767 nM
xmPD-1-hIL15Rasu-hIL15(E64Q/D30N/I68S/M109A) (other, not restated for this mutant) heavy 1: HHHHHHHHGGGGSGSGGEVQLVESGGGLVKPGGSLELSCAASGFTFSSYWMSWVRQAPEKGLEWVAAISPSGGSTYYADSVKGRFTISRDNAKNTLFLQMTSLRSEDTAMYYCAKESWGAYYDLWGQGTTVTVSSASTKGPSVFPLAPCSRSTSESTAALGCLVKDYFPEPVTVSWNSGALTSGVHTFPAVLQSSGLYSLSSVVTVPSSNFGTQTYTCNVDHKPSNTKVDKTVERKCRVRCPRCPAPPVAGPSVFLFPPKPKDTLMISRTPEVTCVVVAVSHEDPEVQFNWYVDGVEVHNAKTKPREEQFNSTFRVVSVLTVVHQDWLNGKEYKCKVSNKGLPSSIEKTISKTKGQPREPQVYTLPPSREEMTKNQVSLTCLVKGFYPSDIAVEWESNGQPENNYKTTPPMLDSDGSFFLYSRLTVDKSRWQQGNVFSCSVMHEALHNHYTQKSLSLSPGK heavy 2: EVQLVESGGGLVKPGGSLELSCAASGFTFSSYWMSWVRQAPEKGLEWVAAISPSGGSTYYADSVKGRFTISRDNAKNTLFLQMTSLRSEDTAMYYCAKESWGAYYDLWGQGTTVTVSSASTKGPSVFPLAPCSRSTSESTAALGCLVKDYFPEPVTVSWNSGALTSGVHTFPAVLQSSGLYSLSSVVTVPSSNFGTQTYTCNVDHKPSNTKVDKTVERKCEVECPECPAPPVAGPSVFLFPPKPKDTLMISRTPEVTCVVVAVSHEDPEVQFNWYVDGVEVHNAKTKPREEQFNSTFRVVSVLTVVHQDWLNGKEYKCKVSNKGLPSSIEKTISKTKGQPREPQVYTLPPSREEMTKNQVSLTCEVKGFYPSDIAVEWESNGQPENNYKTTPPMLDSDGSFFLYSKLTVDKSRWQQGNVFSCSVMHEALHNHYTQKSLSLSPGSGGGGGTSATATPGAITCPPPMSVEHADIWVKSYSLYSRERYICNSGFKRKAGTSSLTECVLNKATNVAHWTTPSLKCIRDPALVHQRPAPPSGGSGGGGSGGGSGGGGSGGNWVNVISDLKKIEDLIQSMHIDATLYTESNVHPSCKVTAMKCFLLELQVISLESGDASIHDTVQNLISLANNSLSSNGNVTESGCKECEELEEKNIKEFLQSFVHIVQAFINT light: DIVMTQSPSSLSVSAGDKVTMSCRASQGISSWLAWYQQKPWQPPKLLIYKASTLESGVPDRFTGSGSGTDFTLTISSVQAEDLAVYYCQQSYSTPWTFGGGTKLEIKGTVAAPSVFIFPPSDEQLKSGTASVVCLLNNFYPREAKVQWKVDNALQSGNSQESVTEQDSKDSTYSLSSTLTLSKADYEKHKVYACEVTHQGLSSPVTKSFNRGEC	–	no binding (tested: 3000 nM)	Kd (human IL-2Rβ [5]): > 1500 nM

Now from value to binder, other results behind:

Kd (human IL-2Rβ [1])	binding result (human IL-15Rα [4])	Binder	further results
479 nM	–	hIL-15 V49R/N1R (ligand) RWVNVISDLKKIEDLIQSMHIDATLYTESDVHPSCKVTAMKCFLLELQRISLESGDASIHDTVENLIILANNSLSSNGNVTESGCKECEELEEKNIKEFLQSFVHIVQMFINTGGGGSGHHHHHHHHGGGLNDIFEAQKIEWHE	Kd (human IL-15Rα [2]): 243 nM
117 nM	–	hIL-15 V49R/N4Y (ligand) NWVYVISDLKKIEDLIQSMHIDATLYTESDVHPSCKVTAMKCFLLELQRISLESGDASIHDTVENLIILANNSLSSNGNVTESGCKECEELEEKNIKEFLQSFVHIVQMFINTGGGGSGHHHHHHHHGGGLNDIFEAQKIEWHE	–
–	no binding (tested: 3000 nM)	xmPD-1-hIL15Rasu-hIL15(E64Q/D30N/N4K/M109A) (other, not restated for this mutant) heavy 1: HHHHHHHHGGGGSGSGGEVQLVESGGGLVKPGGSLELSCAASGFTFSSYWMSWVRQAPEKGLEWVAAISPSGGSTYYADSVKGRFTISRDNAKNTLFLQMTSLRSEDTAMYYCAKESWGAYYDLWGQGTTVTVSSASTKGPSVFPLAPCSRSTSESTAALGCLVKDYFPEPVTVSWNSGALTSGVHTFPAVLQSSGLYSLSSVVTVPSSNFGTQTYTCNVDHKPSNTKVDKTVERKCRVRCPRCPAPPVAGPSVFLFPPKPKDTLMISRTPEVTCVVVAVSHEDPEVQFNWYVDGVEVHNAKTKPREEQFNSTFRVVSVLTVVHQDWLNGKEYKCKVSNKGLPSSIEKTISKTKGQPREPQVYTLPPSREEMTKNQVSLTCLVKGFYPSDIAVEWESNGQPENNYKTTPPMLDSDGSFFLYSRLTVDKSRWQQGNVFSCSVMHEALHNHYTQKSLSLSPGK heavy 2: EVQLVESGGGLVKPGGSLELSCAASGFTFSSYWMSWVRQAPEKGLEWVAAISPSGGSTYYADSVKGRFTISRDNAKNTLFLQMTSLRSEDTAMYYCAKESWGAYYDLWGQGTTVTVSSASTKGPSVFPLAPCSRSTSESTAALGCLVKDYFPEPVTVSWNSGALTSGVHTFPAVLQSSGLYSLSSVVTVPSSNFGTQTYTCNVDHKPSNTKVDKTVERKCEVECPECPAPPVAGPSVFLFPPKPKDTLMISRTPEVTCVVVAVSHEDPEVQFNWYVDGVEVHNAKTKPREEQFNSTFRVVSVLTVVHQDWLNGKEYKCKVSNKGLPSSIEKTISKTKGQPREPQVYTLPPSREEMTKNQVSLTCEVKGFYPSDIAVEWESNGQPENNYKTTPPMLDSDGSFFLYSKLTVDKSRWQQGNVFSCSVMHEALHNHYTQKSLSLSPGSGGGGGTSATATPGAITCPPPMSVEHADIWVKSYSLYSRERYICNSGFKRKAGTSSLTECVLNKATNVAHWTTPSLKCIRDPALVHQRPAPPSGGSGGGGSGGGSGGGGSGGNWVKVISDLKKIEDLIQSMHIDATLYTESNVHPSCKVTAMKCFLLELQVISLESGDASIHDTVQNLIILANNSLSSNGNVTESGCKECEELEEKNIKEFLQSFVHIVQAFINT light: DIVMTQSPSSLSVSAGDKVTMSCRASQGISSWLAWYQQKPWQPPKLLIYKASTLESGVPDRFTGSGSGTDFTLTISSVQAEDLAVYYCQQSYSTPWTFGGGTKLEIKGTVAAPSVFIFPPSDEQLKSGTASVVCLLNNFYPREAKVQWKVDNALQSGNSQESVTEQDSKDSTYSLSSTLTLSKADYEKHKVYACEVTHQGLSSPVTKSFNRGEC	Kd (human IL-2Rβ [5]): > 3000 nM
